Source: the supplement of paper PMC12855868

B1: library; numbered along this chain (parent)
chain: MAAAGGARLLRAASAVLGGPAGRWLHHAGSRAGSSGLLRNRGPGGSAEASRSLSVSARARSSSEDKITVHFINRDGETLTTKGKVGDSLLDVVVENNLDIDGFGACEGTLACSTCHLIFEDHIYEKLDAITDEENDMLDLAYGLTDRSRLGCQICLTKSMDNMTVRVPETVADARQSIDVGKTS

Variants of: B1
Experiment: scaled log2 fold change in cell abundance, elesclomol vs control (0 = silent mean, 1 = nonsense mean) (scaled log2 ratio); higher = higher viability under elesclomol (loss of FDX1 cuproptosis function)
Conditions: glucose 10 mM
Protocol: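 Deep mutational scan of full-length human FDX1: a pooled saturation-mutagenesis ORF library (every residue 2-184 mutated to all 19 amino acids plus stop, and silent codons where available) was expressed by lentivirus in FDX1-knockout ABC1 (14 days) or HEK293T (11 days) cells grown with elesclomol (ES) or DMSO control. Variant abundance came from ORF sequencing. The log2 fold change (ES vs control, mean of duplicates) was centred on the silent-variant mean (0) and scaled to the nonsense-variant mean (1). Higher values mean greater viability under ES, i.e. loss of FDX1 function in cuproptosis.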

[1] = with ABC1 FDX1 KO, elesclomol 5 nM, 14 days
[2] = with HEK293T FDX1 KO, elesclomol 40 nM, 11 days
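Note: variant abundance is its share of total variant reads in each endpoint sample, from next-generation sequencing of the integrated ORF PCR-amplified out of genomic DNA.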

| Variant | scaled log2 fold change [1] | scaled log2 fold change [2] |
| --- | --- | --- |
| A59M | -0.0959 | -0.108 |
| A59W | 0.216 | 0.283 |
| A59G | -0.424 | -0.916 |
| A59I | 0.202 | 0.473 |
| A59Y | 0.0878 | -0.306 |
| A59S | 0.217 | 0.732 |
| A59T | 0.332 | -0.0311 |
| A59P | -0.0792 |  |
| A59H | -0.614 |  |
| A59K | -0.0687 | -0.733 |
| A59F | 0.319 | -0.721 |
| A59L | -0.434 | 0.562 |
| A59E | -0.245 | 0.171 |
| A59V | -0.507 | 0.0474 |
| A59C | -0.665 | 0.732 |
| A59N | -0.132 | 0.117 |
| A59Q | 0.564 | -0.702 |
| A59R | -0.761 | -0.456 |
| A59D | -0.0282 | 0.274 |
| D65H | 0.192 | 0.0338 |
| D65F | -0.512 | -0.119 |
| D65E | -0.139 | 0.087 |
| D65A | -0.0535 | -0.237 |
| D65G | 0.134 | -0.165 |
| D65C | 0.243 | -0.327 |

| Variant | scaled log2 fold change [1] | scaled log2 fold change [2] |
| --- | --- | --- |
| R58N | -0.417 | -0.0662 |
| R58Q | 0.0532 | -0.891 |
| R58P | 0.228 | 0.00503 |
| R58Y | -0.339 | -0.258 |
| R58M | 0.306 | -0.781 |
| R58V | 0.434 | 1.47 |
| R58K | 0.151 | -0.231 |
| R58I | -0.339 | 0.608 |
| R58L | -0.211 | 0.174 |
| R58S | 0.12 | -0.815 |
| R58T | -0.167 | -0.0694 |
| R58W | 0.133 | 0.3 |
| S62R | -0.893 | 0.128 |
| S62H | -0.223 | 0.729 |
| S62M | 0.0792 |  |
| S62K | 0.104 | 1.13 |
| S62C | -0.366 | -0.138 |
| S62F | 0.075 | 0.425 |
| S62D | 0.269 | 1.05 |
| S62A | -0.86 | -0.876 |
| S62I | 0.0619 | -0.0402 |
| S62Q | 0.0996 | 0.145 |
| S62N | 0.0847 | -0.479 |
| S62L | 0.0177 | 0.0918 |
| S62W | -0.132 |  |

| Variant | scaled log2 fold change [1] | scaled log2 fold change [2] |
| --- | --- | --- |
| S62T | -0.0712 | -0.205 |
| S62E | 0.0386 |  |
| S62Y | -0.427 |  |
| S62G | -0.00606 | 0.141 |
| R60H | -0.288 | -0.116 |
| R60L | 0.042 | -0.384 |
| R60Q | -0.0931 | -0.217 |
| R60V | 0.116 |  |
| R60S | 0.275 | 0.216 |
| R60Y | 0.215 | 0.0482 |
| R60G | -0.278 | -0.224 |
| R60M | -0.213 | 0.72 |
| R60W | -0.217 | 0.972 |
| R60I | 0.0411 |  |
| R60E | -0.329 | 0.272 |
| R60C | 0.327 | -0.517 |
| R60T | -0.956 | -0.542 |
| R60K | -0.27 |  |
| R60F | 0.0888 | -0.201 |
| R60A | 0.137 |  |
| R60P | -0.332 | 0.626 |
| R60N | -0.096 | 0.128 |
| S61Q | 0.577 |  |
| S61K | -0.0816 |  |
| S61G | -0.405 |  |

| Variant | scaled log2 fold change [1] | scaled log2 fold change [2] |
| --- | --- | --- |
| S61M | 0.184 |  |
| S61Y | 0.603 | 1.51 |
| S61E | 0.468 |  |
| S61V | 0.78 |  |
| S61N | -0.737 | -0.556 |
| S61W | -0.113 | 0.846 |
| S61F | -0.102 |  |
| S61I | -0.527 |  |
| S61D | 1.01 | 1.93 |
| S61R | -0.524 |  |
| S63H | 0.197 | 0.218 |
| S63Y | 0.0691 | 0.7 |
| S63N | -0.0613 | -0.00891 |
| S63V | 0.189 | 0.0727 |
| S63G | 0.283 | 0.000639 |
| S63A | 0.227 | 0.763 |
| S63M | 0.124 | -0.609 |
| S63I | -1.11 | 0.315 |
| S63C | 0.302 | -0.446 |
| S63W | 0.527 | 0.0977 |
| S63E | 0.199 | -0.451 |
| S63L | 0.0558 | -0.251 |
| S63Q | -0.105 | 0.797 |
| S63F | 0.0355 | -0.0458 |
| S63R | 0.598 | -0.598 |

| Variant | scaled log2 fold change [1] | scaled log2 fold change [2] |
| --- | --- | --- |
| S63P | 0.175 | 0.000753 |
| S63K | 0.173 | -0.352 |
| S63T | 0.0678 | -0.0954 |
| S63D | -0.272 | -0.143 |
| E64R | -0.913 | 0.0821 |
| E64H | -0.531 | -0.334 |
| E64L | -0.17 | -0.952 |
| E64V | -0.321 | -0.136 |
| E64F | 0.0956 |  |
| E64M | -0.109 | -0.0994 |
| E64I | 0.394 | 0.168 |
| E64K | 0.278 | -0.162 |
| E64G | -0.323 | 0.0488 |
| E64S | -0.691 | -0.469 |
| E64Y | 0.374 | -0.0105 |
| E64D | 0.0681 | -0.0197 |
| E64A | -0.335 | 1.19 |
| E64P | 0.158 | 0.0559 |
| E64Q | -0.0857 | -0.107 |
| E64T | 0.135 | -0.296 |
| E64W | -0.394 |  |
| E64C | -0.0781 | 0.793 |
